Experimental data as given in patent US20220177587A1, “METHODS AND USES OF VARIANT CD80 FUSION PROTEINS AND RELATED CONSTRUCTS” (Alpine Immune Sciences, Inc., priority 2018, published 2022).
Read-outs that look alike come from different tables or passages of the source. Each block holds one binder with its values, some of them ahead of it.

What was measured:
CD28 (human) [1] = biological target: CD28 (human) (UniProt P10747)
human PD-L1 (human) [2] = biological target: human PD-L1 (human) (UniProt Q9NZQ7)
Target sequence in this assay (Q9NZQ7 19-290 limits assumed): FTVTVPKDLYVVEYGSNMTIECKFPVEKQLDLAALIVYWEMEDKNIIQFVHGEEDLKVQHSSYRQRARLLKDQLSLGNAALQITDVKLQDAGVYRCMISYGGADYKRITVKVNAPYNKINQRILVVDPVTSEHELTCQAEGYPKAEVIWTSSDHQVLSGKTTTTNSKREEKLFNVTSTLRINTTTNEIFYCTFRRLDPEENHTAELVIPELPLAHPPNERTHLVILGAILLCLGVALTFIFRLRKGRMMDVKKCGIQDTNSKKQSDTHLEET

CD28 (human) [3] = biological target: CD28 (human) (UniProt P10747); assay: flow cytometry, Jurkat cells (CD28)
human CTLA-4 (human) [4] = biological target: human CTLA-4 (human) (UniProt P16410); assay: flow cytometry, CHO cells stably expressing CTLA4
Chain of human CTLA-4 (human) (P16410 36-223): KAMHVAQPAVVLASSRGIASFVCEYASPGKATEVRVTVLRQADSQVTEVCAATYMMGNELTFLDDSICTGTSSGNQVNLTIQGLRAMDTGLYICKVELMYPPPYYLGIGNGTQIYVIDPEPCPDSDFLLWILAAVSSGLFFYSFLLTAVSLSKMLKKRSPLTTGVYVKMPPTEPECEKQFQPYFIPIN

human PD-L1 (human) [5] = biological target: human PD-L1 (human) (UniProt Q9NZQ7); assay: flow cytometry, CHO cells stably expressing PD-L1
Target sequence in this assay (Q9NZQ7 19-290): as the sequence (Q9NZQ7 19-290 limits assumed) above

human PD-L1 (human) [6] = biological target: human PD-L1 (human) (UniProt Q9NZQ7); assay: flow cytometry, MFI on PD-L1 cells over MFI on CD28 cells
Target sequence in this assay (Q9NZQ7 19-290): as the sequence (Q9NZQ7 19-290 limits assumed) above

CD28 (human) [7] = biological target: CD28 (human) (UniProt P10747); remark: listed apart in the source
human PD-L1 (human) [8] = biological target: human PD-L1 (human) (UniProt Q9NZQ7); remark: listed apart in the source
Target sequence in this assay (Q9NZQ7 19-290): as the sequence (Q9NZQ7 19-290 limits assumed) above

human CTLA-4 (human) [9] = biological target: human CTLA-4 (human) (UniProt P16410); assay: flow cytometry, CHO/CTLA4 cells; MFI over CD80 WT IgV-Fc
human PD-L1 (human) [10] = biological target: human PD-L1 (human) (UniProt Q9NZQ7); assay: flow cytometry, CHO/PD-L1 cells; MFI over CD80 WT IgV-Fc
Target sequence in this assay (Q9NZQ7 19-290): as the sequence (Q9NZQ7 19-290 limits assumed) above

CD28 (human) [11] = biological target: CD28 (human) (UniProt P10747); assay: flow cytometry, Jurkat cells (CD28); MFI over CD80 WT IgV-Fc
CD28 (human) [12] = biological target: CD28 (human) (UniProt P10747); remark: listed apart in the source
human PD-L1 (human) [13] = biological target: human PD-L1 (human) (UniProt Q9NZQ7); remark: listed apart in the source
Target sequence in this assay (Q9NZQ7 19-290): as the sequence (Q9NZQ7 19-290 limits assumed) above

CD28 (human) [14] = biological target: CD28 (human) (UniProt P10747); remark: listed apart in the source
human PD-L1 (human) [15] = biological target: human PD-L1 (human) (UniProt Q9NZQ7); remark: listed apart in the source
Target sequence in this assay (Q9NZQ7 19-290): as the sequence (Q9NZQ7 19-290 limits assumed) above

CD28 (human) [16] = biological target: CD28 (human) (UniProt P10747); remark: listed apart in the source
human PD-L1 (human) [17] = biological target: human PD-L1 (human) (UniProt Q9NZQ7); remark: listed apart in the source
human PD-L1 (human) [18] = biological target: human PD-L1 (human) (UniProt Q9NZQ7); assay: flow cytometry, MFI on CHO/PD-L1 over MFI on Jurkat (CD28)
CD28 (human) [19] = biological target: CD28 (human) (UniProt P10747); remark: listed apart in the source

B3: CD80 H18Y/E35D/M47L/A71G/A91S IgV-Fc (Fc fusion)
chain: VIHVTKEVKEVATLSCGYNVSVEELAQTRIYWQKDKKMVLTMMSGDLNIWPEYKNRTIFDITNNLSIVILGLRPSDEGTYECVVLKYEKDSFKREHLAEVTLSVKAD
IL2-luciferase reporter (RLU), fold increase over WT CD80-IgV-Fc at 5.0 nM (CD28 (human) [12]): 4.7 fold
IL2-luciferase reporter (RLU), fold increase over WT CD80-IgV-Fc at 5.0 nM (human PD-L1 (human) [13]): 4.7 fold

B5: CD80 E35D/L97R IgV-Fc (Fc fusion)
chain: VIHVTKEVKEVATLSCGHNVSVEELAQTRIYWQKDKKMVLTMMSGDMNIWPEYKNRTIFDITNNLSIVILALRPSDEGTYECVVLKYEKDAFKREHRAEVTLSVKAD
IL2-luciferase reporter (RLU), fold increase over WT CD80-IgV-Fc at 5.0 nM (CD28 (human) [12]): 2.3 fold
IL2-luciferase reporter (RLU), fold increase over WT CD80-IgV-Fc at 5.0 nM (human PD-L1 (human) [13]): 2.3 fold

B6: CD80 E35D/M47V IgV-Fc (Fc fusion)
chain: VIHVTKEVKEVATLSCGHNVSVEELAQTRIYWQKDKKMVLTMMSGDVNIWPEYKNRTIFDITNNLSIVILALRPSDEGTYECVVLKYEKDAFKREHLAEVTLSVKAD
IL2-luciferase reporter (RLU), fold increase over WT CD80-IgV-Fc at 5.0 nM (CD28 (human) [12]): 3.4 fold
IL2-luciferase reporter (RLU), fold increase over WT CD80-IgV-Fc at 5.0 nM (human PD-L1 (human) [13]): 3.4 fold

B8: CD80 E35D/D46E/M47I IgV-Fc (Fc fusion)
chain: VIHVTKEVKEVATLSCGHNVSVEELAQTRIYWQKDKKMVLTMMSGEINIWPEYKNRTIFDITNNLSIVILALRPSDEGTYECVVLKYEKDAFKREHLAEVTLSVKAD
IL2-luciferase reporter (RLU), fold increase over WT CD80-IgV-Fc at 5.0 nM (CD28 (human) [12]): 4.8 fold
IL2-luciferase reporter (RLU), fold increase over WT CD80-IgV-Fc at 5.0 nM (human PD-L1 (human) [13]): 4.8 fold

The remaining lines, values ahead:

IL-2 luciferase reporter, fold increase over WT CD80-IgV-Fc at 5.0 nM (CD28 (human) [1]): 3.1 fold
IL-2 luciferase reporter, fold increase over WT CD80-IgV-Fc at 5.0 nM (human PD-L1 (human) [2]): 3.1 fold
Fold change to WT CD80 (CD28 (human) [3]): 7.4 fold
MFI at 33.3 nM (CD28 (human) [3]): 324 MFI
Fold change to WT CD80 (human CTLA-4 (human) [4]): 17.7 fold
MFI at 33.3 nM (human CTLA-4 (human) [4]): 24000 MFI
Fold change to WT CD80 (human PD-L1 (human) [5]): 228 fold
MFI at 33.3 nM (human PD-L1 (human) [5]): 9950 MFI
Ratio of PDL1:CD28 (human PD-L1 (human) [6]): 30.7
B1: variant CD80 IgV-Fc H18Y/A26E/E35D/M47L (Fc fusion)
chain: VIHVTKEVKEVATLSCGYNVSVEELEQTRIYWQKDKKMVLTMMSGDLNIWPEYKNRTIFDITNNLSIVILALRPSDEGTYECVVLKYEKDAFKREHLAEVTLSVKAD

IL2-luciferase reporter, fold increase in RLU over WT CD80-IgV-Fc at 5.0 nM (CD28 (human) [7]): 4.7 fold
IL2-luciferase reporter, fold increase in RLU over WT CD80-IgV-Fc at 5.0 nM (human PD-L1 (human) [8]): 4.7 fold
MFI at 33.3 nM (CD28 (human) [3]): 2450 MFI
MFI at 33.3 nM (human CTLA-4 (human) [4]): 16200 MFI
MFI at 33.3 nM (human PD-L1 (human) [5]): 52400 MFI
Fold change to WT CD80 (human CTLA-4 (human) [9]): 11.7 fold
Fold change to WT CD80 (human PD-L1 (human) [10]): 318 fold
Fold change to WT CD80 (CD28 (human) [11]): 24 fold
B2: variant CD80 IgV-Fc (inert) H18V/A26P/E35D/M47L/V68M/A71G (Fc fusion)
chain: VIHVTKEVKEVATLSCGVNVSVEELPQTRIYWQKDKKMVLTMMSGDLNIWPEYKNRTIFDITNNLSIMILGLRPSDEGTYECVVLKYEKDAFKREHLAEVTLSVKAD

RLU at 5.0 nM: Fold Increase over WT CD80-IgV-Fc (CD28 (human) [14]): 3.9 fold
RLU at 5.0 nM: Fold Increase over WT CD80-IgV-Fc (human PD-L1 (human) [15]): 3.9 fold
B4: CD80 IgV-Fc E35D/M47L/Y53F/V68M/A71G/K93R/E95V (Fc fusion)
chain: VIHVTKEVKEVATLSCGHNVSVEELAQTRIYWQKDKKMVLTMMSGDLNIWPEFKNRTIFDITNNLSIMILGLRPSDEGTYECVVLKYEKDAFRRVHLAEVTLSVKAD

RLU at 5.0 nM: Fold Increase over WT CD80-IgV-Fc (CD28 (human) [14]): 2.5 fold
RLU at 5.0 nM: Fold Increase over WT CD80-IgV-Fc (human PD-L1 (human) [15]): 2.5 fold
RLU at 5.0 nM: Fold Increase over WT CD80-IgV-Fc (CD28 (human) [16]): 6.4 fold
RLU at 5.0 nM: Fold Increase over WT CD80-IgV-Fc (human PD-L1 (human) [17]): 6.4 fold
Fold change to WT CD80 (CD28 (human) [3]): 33.7 fold
MFI at 33.3 nM (CD28 (human) [3]): 1390 MFI
Fold change to WT CD80 (human CTLA-4 (human) [4]): 18.5 fold
MFI at 33.3 nM (human CTLA-4 (human) [4]): 19300 MFI
Fold change to WT CD80 (human PD-L1 (human) [5]): 43.6 fold
MFI at 33.3 nM (human PD-L1 (human) [5]): 3090 MFI
Ratio of PDL1:CD28 (human PD-L1 (human) [18]): 2.2
B7: CD80 IgV-Fc H18Y/E35D/M47V/V68M/L85M (Fc fusion)
chain: VIHVTKEVKEVATLSCGYNVSVEELAQTRIYWQKDKKMVLTMMSGDVNIWPEYKNRTIFDITNNLSIMILALRPSDEGTYECVVMKYEKDAFKREHLAEVTLSVKAD

Fold increase in IL2 reporter signal (Jurkat/IL2 reporter assay) (fold vs WT CD80 IgV-Fc) (CD28 (human) [19]): 0.45
B9: variant CD80 IgV-Fc V20I/M47V/T57I/V84I (Fc fusion)
chain: VIHVTKEVKEVATLSCGHNISVEELAQTRIYWQKEKKMVLTMMSGDVNIWPEYKNRIIFDITNNLSIVILALRPSDEGTYECVILKYEKDAFKREHLAEVTLSVKAD
